According to patent US20170247475A1 (Boehringer Ingelheim, published 2017):

T1: human VEGF-C (human, UniProt P49767 103-227)
T1 construct: also called hVEGF-C
T1 sequence (looked up): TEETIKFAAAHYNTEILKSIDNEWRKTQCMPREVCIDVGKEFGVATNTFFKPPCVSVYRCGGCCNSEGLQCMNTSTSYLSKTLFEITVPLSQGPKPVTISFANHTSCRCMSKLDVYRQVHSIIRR

T2: human PIGF (human, UniProt P49763-2 21-149, limits assumed)
T2 construct: also called hPIGF; PLGF
T2 sequence (looked up): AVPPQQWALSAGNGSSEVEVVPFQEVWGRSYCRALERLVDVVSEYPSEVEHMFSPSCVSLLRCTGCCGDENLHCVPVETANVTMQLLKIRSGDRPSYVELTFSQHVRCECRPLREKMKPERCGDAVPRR

T3: human VEGF-B (human, UniProt P49765-2 22-188, limits assumed)
T3 construct: also called hVEGF-B
T3 sequence (looked up): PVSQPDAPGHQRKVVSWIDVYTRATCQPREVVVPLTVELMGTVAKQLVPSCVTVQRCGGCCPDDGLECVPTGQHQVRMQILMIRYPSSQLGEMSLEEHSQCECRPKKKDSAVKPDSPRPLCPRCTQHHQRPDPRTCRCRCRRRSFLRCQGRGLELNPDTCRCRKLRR

T4: human VEGF-D (human, UniProt O43915 93-201)
T4 construct: also called hVEGF-D
T4 sequence (looked up): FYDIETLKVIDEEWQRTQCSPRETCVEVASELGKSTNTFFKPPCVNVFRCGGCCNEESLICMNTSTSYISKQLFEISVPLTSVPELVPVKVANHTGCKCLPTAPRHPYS

T5: recombinant mouse VEGF164 (mouse, UniProt Q00731-2 27-190)
T5 construct: biotinylated in the mVEGFR2 AlphaScreen; also called rmVEGF164; mVEGF164
T5 sequence (looked up): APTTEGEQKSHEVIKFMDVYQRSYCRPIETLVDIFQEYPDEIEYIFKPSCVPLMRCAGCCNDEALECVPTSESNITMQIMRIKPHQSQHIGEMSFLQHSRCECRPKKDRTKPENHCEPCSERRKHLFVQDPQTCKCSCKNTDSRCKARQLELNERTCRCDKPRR

T6: recombinant human VEGF121 (human, UniProt P15692-9 27-147)
T6 construct: also called rhVEGF121; hVEGF121
T6 sequence (looked up): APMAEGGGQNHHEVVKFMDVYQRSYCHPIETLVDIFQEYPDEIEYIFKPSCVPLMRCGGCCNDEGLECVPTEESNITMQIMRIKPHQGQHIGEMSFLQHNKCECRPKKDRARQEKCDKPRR


Tests used:
VEGF [1] = experiment: cell-based or functional assay
[2] = molecular target: T7, recombinant human VEGF165 (human, UniProt P15692-4 27-191); experiment: binding ELISA, coated rhVEGF165
T7 construct: also called hVEGF165; rhVEGF165

[3] = molecular target: T7, recombinant human VEGF165; experiment: VEGF/VEGFR1 competition AlphaScreen
Protocol: (§1) Finally, streptavidin donor beads (20 μg/ml) are added and after 1 hour of incubation in the dark, fluorescence is measured on the Envision microplate reader.

[4] = molecular target: T7, recombinant human VEGF165; experiment: VEGF/VEGFR2 competition AlphaScreen
Protocol: as §1

human VEGF-C = molecular target: T1, human VEGF-C; experiment: binding ELISA on coated VEGFC
Protocol: (§2) Binding to VEGFB, VEGFC, VEGFD and PIGF is assessed via a solid phase binding ELISA. In brief, VEGFB, VEGFC, VEGFD and PIGF (R&D Systems, Minneapolis, Minn., USA) are coated overnight at 4° C. at 1 μg/mL in a 96-well MaxiSorp plate (Nunc, Wiesbaden, Germany). Wells are blocked with a casein solution (1% in PBS). […] As positive controls serial dilutions of the appropriate receptors are taken along and detected with horseradish peroxidase (HRP)-conjugated goat anti-human IgG, Fc specific antibody (Jackson Immuno Research Laboratories Inc., West Grove, Pa., USA) and a subsequent enzymatic reaction in the presence of the substrate TMB (3,3′,5,5′-tetramentylbenzidine) (Pierce, Rockford, Ill., USA).

human PIGF = molecular target: T2, human PIGF; experiment: binding ELISA on coated PIGF
Protocol: as §2

[5] = molecular target: T7, recombinant human VEGF165; experiment: hVEGF165/hVEGFR2-Fc competition ELISA
human VEGF-B = molecular target: T3, human VEGF-B; experiment: binding ELISA on coated VEGFB
Protocol: as §2

human VEGF-D = molecular target: T4, human VEGF-D; experiment: binding ELISA on coated VEGF D
Protocol: as §2

[6] = molecular target: T7, recombinant human VEGF165; experiment: VEGF165/hVEGFR1-Fc competition AlphaScreen
Protocol: as §1

[7] = molecular target: T7, recombinant human VEGF165; experiment: hVEGF165/hVEGFR2-Fc competition AlphaScreen
Protocol: as §1

[8] = molecular target: T5, recombinant mouse VEGF164; experiment: binding ELISA on coated mouse VEGF164
Protocol: (§3) Cross-reactivity to mouse VEGF164 is determined using a binding ELISA. […] Wells are blocked with a casein solution (1% in PBS). […] A mouse VEGF164 reactive mAb is included as positive control.

[9] = molecular target: T7, recombinant human VEGF165; experiment: SPR Biacore T100, hVEGF165 on chip, Two State Reaction model
Protocol: (§4) Samples are injected for 2 min and allowed to dissociate up to 20 min at a flow rate of 45 μI/min. In between sample injections, the chip surface is regenerated with 100 mM HCl. HBS-EP+(Hepes buffer pH7.4+EDTA) is used as running buffer. Binding curves are fitted using a Two State Reaction model by Biacore T100 Evaluation Software v2.0.1.
(§5) ^{(a)}KD = kd1/kₐ₁ * (kd2/(kd2 + kₐ₂)) ^{(b)}Curves are fitted using a Two State Reaction model by Biacore T100 Evaluation Software v2.0.1

[10] = molecular target: T7, recombinant human VEGF165; experiment: ka1; SPR Biacore T100, hVEGF165 on chip, Two State Reaction model
Protocol: as §4, §5

[11] = molecular target: T7, recombinant human VEGF165; experiment: kd1; SPR Biacore T100, hVEGF165 on chip, Two State Reaction model
Protocol: as §4, §5

[12] = molecular target: T7, recombinant human VEGF165; experiment: SPR Biacore T100, Two State Reaction model; KD = kd1/ka1 * (kd2/(kd2 + ka2))
Protocol: as §4, §5

[13] = molecular target: T6, recombinant human VEGF121; experiment: binding ELISA, coated rhVEGF121
Protocol: Binding to recombinant human VEGF121 is assessed via a solid phase binding ELISA. Briefly, recombinant human VEGF121 (R&D Systems, Minneapolis, Minn., USA) is coated overnight at 4° C. at 1 μg/mL in a 96-well MaxiSorp plate (Nunc, Wiesbaden, Germany). Wells are blocked with a casein solution (1% in PBS).

VEGF [14] = experiment: cell-based or functional assay; remark: listed apart in the source
[15] = molecular target: T5, recombinant mouse VEGF164; experiment: binding ELISA, coated rmVEGF164
Protocol: as §3

[16] = molecular target: T7, recombinant human VEGF165; experiment: VEGF165/hVEGFR1-Fc competition ELISA

Binder	% inhibition, VEGF HUVEC Erk phosphorylation assay (VEGF [1])	IC50 (nM), VEGF HUVEC Erk phosphorylation assay (VEGF [1])	EC50 [2]	% inhibition [3]	IC50 [3]	IC50 [4]	binding result (human VEGF-C)	binding result (human PIGF)	% inhibition [5]	IC50 [5]	binding result (human VEGF-B)	binding result (human VEGF-D)	% inhibition [6]	IC50 [6]	% inhibition [7]	IC50 [7]	ka2 [9]	kd2 [9]	kon [10]	koff [11]	also measured
VEGFBII023 (VHH, biparatopic bivalent VHH in one chain; also called VEGFBII23B04-40GS-10E07; VEGFBI023) EVQLVESGGGLVQTGDSLRLSCEVSGRTFSSYSMGWFRQAQGKEREFVVAISKGGYKYDSVSLEGRFTISKDNAKNTVYLQINSLKPEDTAVYYCASSRAYGSSRLRLADTYEYWGQGTQVTVSSGGGGSGGGGSGGGGSGGGGSGGGGSGGGGSGGGGSGGGGSEVQLVESGGGLVQAGGSLRLSCAASGRTFSNYAMGWFRQAPGKERVLVADISSSGINTYVADAVKGRFTISRDNAKNTVYLQMNSLKPEDTAVYYCAASAWWYSQMARDNYRYWGQGTQVTVSS	100%	0.25 nM	0.221 nM	91%	0.044 nM	0.038 nM	no binding (tested: 5e-7 M)	no binding (tested: 5e-7 M)	100%	0.213 nM	no binding (tested: 5e-7 M)	no binding (tested: 5e-7 M)	87%	0.048 nM	100%	0.046 nM	0.024 s⁻¹	0.00027 s⁻¹	300000 M⁻¹ s⁻¹	0.018 s⁻¹	binding result [8]: binds; Kd [12]: 0.69 nM
VEGFBII025 (VHH, biparatopic bivalent VHH in one chain; also called VEGFBII10E07-40GS-23B04) EVQLVESGGGLVQAGGSLRLSCAASGRTFSNYAMGWFRQAPGKERVLVADISSSGINTYVADAVKGRFTISRDNAKNTVYLQMNSLKPEDTAVYYCAASAWWYSQMARDNYRYWGQGTQVTVSSGGGGSGGGGSGGGGSGGGGSGGGGSGGGGSGGGGSGGGGSEVQLVESGGGLVQTGDSLRLSCEVSGRTFSSYSMGWFRQAQGKEREFVVAISKGGYKYDSVSLEGRFTISKDNAKNTVYLQINSLKPEDTAVYYCASSRAYGSSRLRLADTYEYWGQGTQVTVSS	99%	0.23 nM	0.668 nM	82%	0.039 nM	0.051 nM	no binding (tested: 5e-7 M)	no binding (tested: 5e-7 M)	100%	0.577 nM	no binding (tested: 5e-7 M)	no binding (tested: 5e-7 M)	82%	0.071 nM	100%	0.051 nM	0.018 s⁻¹	0.00037 s⁻¹	330000 M⁻¹ s⁻¹	0.017 s⁻¹	EC50 [13]: 0.475 nM; binding result [8]: binds; Kd [12]: 1.1 nM
VEGFBII021 (VHH, biparatopic bivalent VHH in one chain; also called VEGFBII23B04-40GS-5B05) EVQLVESGGGLVQTGDSLRLSCEVSGRTFSSYSMGWFRQAQGKEREFVVAISKGGYKYDSVSLEGRFTISKDNAKNTVYLQINSLKPEDTAVYYCASSRAYGSSRLRLADTYEYWGQGTQVTVSSGGGGSGGGGSGGGGSGGGGSGGGGSGGGGSGGGGSGGGGSEVQLVESGGGLVQPGGSLRLSCVASGIRFMSMAWYRQAPGKHRELVARISSGGTTAYVDSVKGRFTISRDNSKNTVYLQMNSLKAEDTAVYYCNTFSSRPNPWGAGTQVTVSS	103%	0.21 nM	0.334 nM	100%	0.016 nM	0.009 nM	no binding (tested: 5e-7 M)	no binding (tested: 5e-7 M)	100%	0.204 nM	no binding (tested: 5e-7 M)	no binding (tested: 5e-7 M)	100%	0.012 nM	100%	0.007 nM	0.023 s⁻¹	0.00019 s⁻¹	1.2e+06 M⁻¹ s⁻¹	0.011 s⁻¹	% inhibition, VEGF HUVEC proliferation assay (VEGF [14]): 98%; IC50 (nM), VEGF HUVEC proliferation assay (VEGF [14]): 0.4 nM; EC50 [15]: 0.502 nM; % inhibition [16]: 97%; IC50 [16]: 0.254 nM; Kd [12]: 0.07 nM
